Each block holds one molecule with its values, some of them ahead of it.
Columns and labels:
[1] = system: Grape GT; experiment: Substrate specificity of the purified recombinant Grape GT, HPLC analysis of glucose ester formation; assay type: biochemical, Vitis sp.; conditions: relative to pHBA = 100, 10 mM test substrate, 0.0467 μM purified Grape GT, 15 min, 25° C.
Experimental: To rule out the possibility that the Grape GT can also attach glucose to the hydroxyl group of pHBA, the products of the in vitro enzyme reaction were directly analyzed by reverse phase HPLC. […] Following a 1-min incubation period at 25° C., the reactions were terminated by the addition of an equal volume of 0.2 N HCl. […] The column was developed at 1 mL/min with a linear gradient of 10–50% Buffer B that was generated over a 20-min period, and absorbance was monitored at 254 nm. […] To test this hypothesis, Applicants' decided to examine the substrate specificity of the Grape GT in greater detail. […] Following a 15-min incubation period at 25° C., the reactions were quenched with an equal volume of 0.3 M HCl and the entire reaction mixture was analyzed by HPLC as described above in Example 6. The products of the various reactions were identified using authentic chemical standards. The retention times and extinction coefficients of these compounds were determined using the same column conditions. […] Regardless of substrate, the purified recombinant Grape GT only catalyzed the formation of glucose esters, which in all cases co-migrated precisely with the authentic compounds. […] Since the glucose ester of the latter compound is the precursor for the synthesis of simple and complex tannins that are extremely abundant in grapes, it is possible that gallic acid is a physiological substrate of the Grape GT. The data shown in Table 3 make it clear that although the Grape GT glucosylated mHBA (3-hydroxybenzoic […]) at a reasonable rate, product formation with oHBA (2-hydroxybenzoic acid) was not observed.

[2] = Ratio of enzyme activity with pHBA versus sinapic acid (spectrophotometric assays); assay type: biochemical; conditions: for rate of pHBA glucosylation relative to sinapic acid: cell-free extract; for Ratio of Activity pHBA/SA: Table 4, cell-free extracts, 10 mM pHBA or sinapic acid, 25° C.; for pHBA/SA ratio of enzyme activity / times more active with sinapic acid than pHBA: crude extract
Experimental: (§1) The second assay is based on the increase in absorbance at 368 nm that accompanies the formation of the glucose ester of sinapic acid. The experimental conditions were the same as those described above, but the test substrate was sinapic acid and product formation was calculated using an extinction coefficient of 5,570 M^−1 that was obtained with the authentic chemically synthesized compound under identical conditions.

[3] = Continuous spectrophotometric UDP-glucosyltransferase assay, formation of glucose ester of sinapic acid at 368 nm, E. coli cell-free extracts; assay type: biochemical; conditions: crude extract, 10 mM UDP-glucose, pH 7.3, 25° C.; for initial rate of product formation, 1 mM SA: 1 mM sinapic acid; for initial rate of product formation, 5 mM SA: 5 mM sinapic acid; for initial rate of product formation, 10 mM SA: 10 mM sinapic acid
Experimental: (§2) For protein production, the resulting recombinant strains were grown at 22° C. in 50 mL of LB media that contained kanamycin (50 μg/mL). At an A600 nm of ˜0.6, isopropyl-1-thio-β-D-galactopyranoside was added to a final concentration of 0.2 mM. Following a 22-h induction period at the same temperature, the cells were harvested by centrifugation and stored at −80° C. for subsequent manipulation as described below.
(§3) The frozen cell pellets were resuspended in 1.0 mL of a solution containing 100 mM Tris-HCl (pH 7.7), 5 mM MgSO4, 1 mM dithiothreitol, 0.03 mg/mL DNAse I, 0.5 mM phenylmethanesulfonyl fluoride, and passed once through a French pressure cell at 20,000 psi. Debris was removed by centrifugation (43,000×g, 60 min), and the resulting cell-free extracts, containing ˜15 mg of protein per mL, were supplemented with 5% glycerol and stored at −80° C. for subsequent measurements of enzyme activities. Protein concentrations were determined by the Bradford Method using bovine serum albumin as a standard.
as §1

[4] = Continuous spectrophotometric UDP-glucosyltransferase assay, formation of pHBA glucose ester at 304 nm, E. coli cell-free extracts; assay type: biochemical; conditions: crude extract, 10 mM UDP-glucose, pH 7.3, 25° C.
Experimental: as §2, §3

Molecule: O=C(O)/C=C/c1ccc(O)c(O)c1 [Caffeic acid, caffeic acid]
- Relative Rate of product formation [1]: 25

- substrate preference for pHBA over sinapic acid ([2]; 10 mM substrate concentration): 4.88 fold
- rate of pHBA glucosylation relative to sinapic acid ([2]; 10 mM substrate): at least six times faster
- Ratio of Activity pHBA/SA [2]: 6.35
B1: Citrus GT: Citrus mitis UDP-glucosyltransferase, SEQ ID NO:31 (protein, listed as Citrus mitis)
chain: MGTESLVHVLLVSFPGHGHVNPLLRLGRLLASKGFFLTLTTPESFGKQMRKAGNFTYEPTPVGDGFIRFEFFEDGWDEDDPGRRDLDQYMAQLELIGKQVIPKIIKKSAEEYRPVSCLINNPFIPWVSDVAESLGLPSAMLWVQSCACFAAYYHYFHGLVPFPSEKEPEIDVQLPCMPLLKHDEVPSFLHPSTPYPFLRRAILGQYENLGKPFCILLDTFYELEKEIIDYMAKICPIKPVGPLFKNPKAPTLTVRDDCMKPDECIDWLDKKPPSSVVYISFGTVVYLKQEQVEEIGYALLNSGISFLWVMKPPPEDSGVKIVDLPDGFLEKVGDKGKVVQWSPQEKVLAHPSVACFVTHCGWNSTMESLASGVPVITFPQWGDQVTDAMYLCDVFKTGLRLCRGEAENRIISRDEVEKCLLEATAGPKAAELKESALKWKQEAEEAVADGGSSDRNIQAFVDEVRRRSVGIITSSKSKSIHRVKELVEKTATATANDKVELVES

- rate of pHBA glucosylation relative to sinapic acid ([2]; 10 mM substrate): over an order of magnitude greater
- Ratio of Activity pHBA/SA [2]: 13.2
B2: Eucalyptus GT: Eucalyptus grandis UDP-glucosyltransferase, SEQ ID NO:22 (protein, listed as Eucalyptus grandis)
chain: MGSEALVHVLLVSFPGQGHVNPLLRLGKRLASKGLLVTFTTPESIGKAMRKASNIGEELSPVGDGFIRFEFFEDGWDEDEIRRQDLDQYLPQLEKVGKVLIPEMIRRNAEQGRPISCLINNPFIPWVSDVADSLGLPSAMLWVQSCACFTSYYYYYHGLVPFPSETAMEIDVQLPCMPLLKHDEVPSFLYPTTPYPFLRRAIMGQYKNLDKPFCILMDTFQELEHEIIEYMSKISPIKTVGPLFKNPKAPNATVKGDFMKADDCVGWLDSKPASSIVYVSFGSVVYLKQDQWDEIAYGLLNSGVNFLWVMKPPHKDSGYEVLKMPEGFLEKAGDRGKVVQWSPQEQVLAHPSVACFVTHCGWNSTMEALTSGMPVVAFPQWGDQVTDAKYLVDVFKVGVRMCRGEAENKLITRDVVEQCLREATSGPKAEEMKQNAMKWSAAAEAAVAEGGSSDRNIQAFVDEVKRRSLEVLAASGKSTANGGADLANKVAANGVAELGEPKVNGELKVVS

- Ratio of Activity pHBA/SA [2]: 0.141
B3: GT 5: Arabidopsis UDP-glucosyltransferase, GenBank AL161541.2, SEQ ID NO:16 (protein, listed as Arabidopsis thaliana)
chain: MKMESSLPHVMLVSFPGQGHISPLLRLGKIIASKGLIVTFVTTEEPLGKKMRQANNIQDGVLKPVGLGFLRFEFFEDGFVYKEDFDLLQKSLEVSGKREIKNLVKKYEKQPVRCLINNAFVPWVCDIAEELQIPSAVLWVQSCACLAAYYYYHHQLVKFPTETEPEITVDVPFKPLTLKHDEIPSFLHPSSPLSSIGGTILEQIKRLHKPFSVLIETFQELEKDTIDHMSQLCPQVNFNPIGPLFTMAKTIRSDIKGDISKPDSDCIEWLDSREPSSVVYISFGTLAFLKQNQIDEIAHGILNSGLSCLWVLRPPLEGLAIEPHVLPLELEEKGKIVEWCQQEKVLAHPAVACFLSHCGWNSTMEALTSGVPVICFPQWGDQVTNAVYMIDVFKTGLRLSRGASDERIVPREEVAERLLEATVGEKAVELRENARRWKEEAESAVAYGGTSERNFQEFVDKLVDVKTMTNINNVV
- initial rate of product formation, 1 mM SA [3]: 5.18 μM per min
- initial rate of product formation, 5 mM SA [3]: 9.2 μM per min
- initial rate of product formation, 10 mM SA [3]: 5.9 μM per min
- pHBA/SA ratio of enzyme activity ([2]; 1 mM substrate): 0.044
- pHBA/SA ratio of enzyme activity ([2]; 5 mM substrate): 0.049
- pHBA/SA ratio of enzyme activity ([2]; 10 mM substrate): 0.141
- initial rate of product formation, 1 mM pHBA [4]: 0.23 μM per min
- initial rate of product formation, 5 mM pHBA [4]: 0.45 μM per min
- initial rate of product formation, 10 mM pHBA [4]: 0.83 μM per min

- times more active with sinapic acid than pHBA ([2]; 10 mM substrate): only about twice as active
- Ratio of Activity pHBA/SA [2]: 0.454
B4: GT 3: Arabidopsis UDP-glucosyltransferase, GenBank AL161541.2, SEQ ID NO:8 (protein, listed as Arabidopsis thaliana)
chain: MMFETCPSPNPIHVMLVSFQGQGHVNPLLRLGKLIASKGLLVTFVTTELWGKKMRQANKIVDGELKPVGSGSIRFEFFDEEWAEDDDRRADFSLYIAHLESVGIREVSKLVRRYEEANEPVSCLINNPFIPWVCHVAEEFNIPCAVLWVQSCACFSAYYHYQDGSVSFPTETEPELDVKLPCVPVLKNDEIPSFLHPSSRFTGFRQAILGQFKNLSKSFCVLIDSFDSLEQEVIDYMSSLCPVKTVGPLFKVARTVTSDVSGDICKSTDKCLEWLDSRPKSSVVYISFGTVAYLKQEQIEEIAHGVLKSGLSFLWVIRPPPHDLKVETHVLPQELKESSAKGKGMIVDWCPQEQVLSHPSVACFVTHCGWNSTMESLSSGVPVVCCPQWGDQVTDAVYLIDVFKTGVRLGRGATEERVVPREEVAEKLLEATVGEKAEELRKNALKWKAEAEAAVAPGGSSDKNFREFVEKLGAGVTKTKDNGY
- initial rate of product formation, 1 mM SA [3]: 146 μM per min
- initial rate of product formation, 5 mM SA [3]: 158 μM per min
- initial rate of product formation, 10 mM SA [3]: 143 μM per min
- pHBA/SA ratio of enzyme activity ([2]; 1 mM substrate): 0.064
- pHBA/SA ratio of enzyme activity ([2]; 5 mM substrate): 0.268
- pHBA/SA ratio of enzyme activity ([2]; 10 mM substrate): 0.454
- initial rate of product formation, 1 mM pHBA [4]: 9.4 μM per min
- initial rate of product formation, 5 mM pHBA [4]: 42.3 μM per min
- initial rate of product formation, 10 mM pHBA [4]: 64.9 μM per min

- times more active with sinapic acid than pHBA ([2]; 10 mM substrate): at least 50 times
- Ratio of Activity pHBA/SA [2]: 0.018
B5: SA-GT: Brassica napus UDP-glucosyltransferase (GenBank Accession No. AF287143), SEQ ID NO:4 (protein, listed as Brassica napus)
chain: MELSSSPLPPHVMLLSFPGQGHVNPLLRLGKLLASKGLLVTFVTTESWGKKMRTANKIQDRALKPIGKGYLRFDFFDDGLPEDDDASRTNLTILRPQLELVGQQEIKNLVKRYKEVMKQPVTCLINNPFVSWVCDVAEDLQIPCAVLWVQSCACLASYYYYHHKLVDFPTETDPKIDVQIPCMPVLKHDEIPSFIHPFSPYSGLREVIIDQIKRLHKPFVVLIDTFYSLEKDIIDHMTNLSRTGVVRPLGPLYKMAKTLICDDIKGDMSETRDDCMEWLDSQPVSSVVYISFGTMAYVTQEQISEIAFGVLNAGVSFLWVIRQQELGVNKERHVLPEELKGKGKVVEWCSQEKVLAHPSVVCFVTHCGWNSTMEALSSGVPTVCFPQWGDQVTDAAYMSDVFKTGVRLSRGETEERVVPREEVAERLREVTKGEKATELKKNALKWKEEAEAAVARRGSSDRNLDEFVEKLCVKHVAKQNGSLNQNGSIQKLLLQKS
- initial rate of product formation, 1 mM SA [3]: 118 μM per min
- initial rate of product formation, 5 mM SA [3]: 82 μM per min
- initial rate of product formation, 10 mM SA [3]: 55.6 μM per min
- pHBA/SA ratio of enzyme activity ([2]; 1 mM substrate): 0.002
- pHBA/SA ratio of enzyme activity ([2]; 5 mM substrate): 0.007
- pHBA/SA ratio of enzyme activity ([2]; 10 mM substrate): 0.018
- initial rate of product formation, 1 mM pHBA [4]: 0.20 μM per min
- initial rate of product formation, 5 mM pHBA [4]: 0.59 μM per min
- initial rate of product formation, 10 mM pHBA [4]: 1.03 μM per min

- times more active with sinapic acid than pHBA ([2]; 10 mM substrate): at least 80 times
B6: GT 4: Arabidopsis UDP-glucosyltransferase, GenBank AL161541, SEQ ID NO:12 (protein, listed as Arabidopsis thaliana)
chain: MNPSRHTHVMLVSFPGQGHVNPLLRLGKLIASKGLLVTFVTTEKPWGKKMRQANKIQDGVLKPVGLGFIRFEFFSDGFADDDEKRFDFDAFRPHLEAVGKQEIKNLVKRYNKEPVTCLINNAFVPWVCDVAEELHIPSAVLWVQSCACLTAYYYYHHRLVKFPTKTEPDISVEIPCLPLLKHDEIPSFLHPSSPYTAFGDIILDQLKRFENHKSFYLFIDTFRELEKDIMDHMSQLCPQAIISPVGPLFKMAQTLSSDVKGDISEPASDCMEWLDSREPSSVVYISFGTIANLKQEQMEEIAHGVLSSGLSVLWVVRPPMEGTFVEPHVLPRELEEKGKIVEWCPQERVLAHPAIACFLSHCGWNSTMEALTAGVPVVCFPQWGDQVTDAVYLADVFKTGVRLGRGAAEEMIVSREVVAEKLLEATVGEKAVELRENARRWKAEAEAAVADGGSSDMNFKEFVDKLVTKHVTREDNGEH

From US7135326B2, “UDP-glucosyltransferases” (E. I. du Pont de Nemours and Company, priority 2002, dated 2006)
